From IntAct's records for PubMed 12473693

B1: Vinculin (Gallus gallus (Chicken)), P12003-1 (parent)
chain: MPVFHTRTIESILEPVAQQISHLVIMHEEGEVDGKAIPDLTAPVSAVQAAVSNLVRVGKETVQTTEDQILKRDMPPAFIKVENACTKLVRAAQMLQADPYSVPARDYLIDGSRGILSGTSDLLLTFDEAEVRKIIRVCKGILEYLTVAEVVETMEDLVTYTKNLGPGMTKMAKMIDERQQELTHQEHRVMLVNSMNTVKELLPVLISAMKIFVTTKNTKSQGIEEALKNRNFTVEKMSAEINEIIRVLQLTSWDEDAWASKDTEAMKRALALIDSKMNQAKGWLRDPNAPPGDAGEQAIRQILDEAGKAGELCAGKERREILGTCKTLGQMTDQLADLRARGQGATPMAMQKAQQVSQGLDLLTAKVENAARKLEAMTNSKQAIAKKIDAAQNWLADPNGGSEGEEHIRGIMSEARKVAELCEEPKERDDILRSLGEISALTAKLSDLRRHGKGDSPEARALAKQIATSLQNLQSKTNRAVANTRPVKAAVHLEGKIEQAQRWIDNPTVDDRGVGQAAIRGLVAEGRRLANVMMGPYRQDLLAKCDRVDQLAAQLADLAARGEGESPQARAIAAQLQDSLKDLKARMQEAMTQEVSDVFSDTTTPIKLLAVAATAPSDTPNREEVFEERAANFENHAARLGATAEKAAAVGTANKTTVEGIQATVKSARELTPQVVSAARILLRNPGNQAAYEHFETMKNQWIDNVEKMTGLVDEAIDTKSLLDASEEAIKKDLDKCKVAMANMQPQMLVAGATSIARRANRILLVAKREVENSEDPKFREAVKAASDELSKTISPMVMDAKAVAGNISDPGLQKSFLDSGYRILGAVAKVREAFQPQEPDFPPPPPDLEHLHLTDELAPPKPPLPEGEVPPPRPPPPEEKDEEFPEQKAGEAINQPMMMAARQLHDEARKWSSKGNDIIAAAKRMALLMAEMSRLVRGGSGNKRALIQCAKDIAKASDEVTRLAKEVAKQCTDKRIRTNLLQVCERIPTISTQLKILSTVKATMLGRTNISDEESEQATEMLVHNAQNLMQSVKETVREAEAASIKIRTDAGFTLRWVRKTPWYQ

Variants of: B1
Conditions: with arpc2_mouse Arpc2, Q9CVB6

Variant | effect of a mutation on the interaction
P878A | disrupting interaction
